# T1: hCD123 (recombinant, construct not stated) (human, UniProt P26951 19-305, limits assumed)
# T1 construct: also called CD123 (Ligand 2)
# T1 sequence (looked up): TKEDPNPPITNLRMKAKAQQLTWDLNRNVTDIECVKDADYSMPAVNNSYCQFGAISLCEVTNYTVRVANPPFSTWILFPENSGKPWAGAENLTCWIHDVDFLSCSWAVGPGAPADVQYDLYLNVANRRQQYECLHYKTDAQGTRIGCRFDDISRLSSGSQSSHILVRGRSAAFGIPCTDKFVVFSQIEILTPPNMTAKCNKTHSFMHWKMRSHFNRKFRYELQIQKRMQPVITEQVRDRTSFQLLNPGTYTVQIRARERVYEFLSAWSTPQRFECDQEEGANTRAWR
# B1: DARPin® protein #27 (designed binder)
# chain: DLGKKLLEAALEGQLDEVRELLKAGADVNAKDQEGYTPLHLAAALGHLEIVEVLLKAGADVNAKDSIGRTPLHLAAYKGHLEIVEVLLKAGADVNAQDLLGETPADLAAEQGHQDIAEVLQKAAGSPTPTPTTPTPTPTTPTPTPTGSDLGVKLLLAASRGQLDEVRILLKAGADVNAKDIDEGYTPLHIAAYYGHLEIVEVLLKAGADVNAKDRYGKTPLHLAAISGHLEIVEVLLKAGADVNAQDDKGDTPADLAADYGHQDIAEVLQKAAGSPTPTPTTPTPTPTTPTPTPTGSDLGQKLLEAAWAGQDDEVRELLKAGADVNAKNSRGWTPLHTAAQTGHLEIFEVLLKAGADVNAKDDKGVTPLHLAAALGHLEIVEVLLKAGADVNAQDSWGTTPADLAAKYGHEDIAEVLQKAA
# notes: CD123-CD33-CD3; also called αCD123-aCD33-αCD3_1; not shown: N-terminal His-tag
# Legend:
# [1] = target: T2, hCD33 and hCD123 immobilized simultaneously on one switchSENSE chip (ratio 2:1, CD33:CD123) (human, UniProt P20138 18-259; P26951 19-305, limits assumed); assay: switchSENSE, CD33 and CD123 on one chip; slow phase (avidity); slow phase (avidity)
# T2 construct: Not a complex: two separate ligands on one surface; used for avidity values and for off-rates; also called both ligands; both targets attached to the surface of the chip
# [2] = target: T2, hCD33 and hCD123 immobilized …; assay: switchSENSE, hCD33 and hCD123 co-immobilised 2:1; panel headed CD33, column KD2 (avidity, simultaneous binding of CD33 and CD123 per paragraph 696)
# Description: (§1) The designed ankyrin repeat proteins: DARPin® protein #20, DARPin® protein #21, DARPin® protein #22, DARPin® protein #27, DARPin® protein #40 and DARPin® protein #41 were tested in a concentration of 0.16 and 64 nM (in a buffer PE140 containing 10 mM Na2HPO4/NaH2PO4, 140 mM NaCl, 0.05% Tween20, 50 μM EDTA, 50 μM EGTA) for binding against two ligands hCD33 and hCD123, which both were immobilized simultaneously to DNA nanolevers, on the surface, at a pre-defined ratio (2:1, CD33:CD123) and 10% density (100:50) on an ADP-48-1-0 chip, where 100% density 1000 receptors/μm2 (preincubated R1-B48-CD123 and G1-A48-CD33 (100 nM) diluted in cNL-48 (dark)). Briefly the following steps were performed: [0724] Conjugation. Amine coupling of the two ligands (CD33 and CD123) to the DNA nanolever (A48, B48, respectively) and purification of the conjugates using the proFIRE® solution (Dynamic Biosensors GmbH) at 25° C. [0725] Evaluation of all the combined affinity and avidity of all different proteins to both ligands attached on the surface of an ADP chip using a DRX+ instrument (dynamic BIOSENSORS). [0726] Statistical analysis (repeatability from 2 to 5 times) including regeneration of the chip surface every concentration analyzed and long dissociation times and data were fitted using a bi-exponential global fit.
# [3] = target: T1, hCD123 (recombinant, construct not …); assay: switchSENSE, hCD33 and hCD123 co-immobilised 2:1; panel headed CD123, column KD1 (affinity)
# Description: as §1
# [4] = target: T3, hCD33 (recombinant, construct not stated) (human, UniProt P20138 18-259, limits assumed); assay: switchSENSE, hCD33 and hCD123 co-immobilised 2:1; panel headed CD33, column KD1 (affinity)
# T3 construct: also called CD33 (Ligand 1)
# [5] = target: T2, hCD33 and hCD123 immobilized …; assay: switchSENSE; KD,2 (avidity, simultaneous binding of CD33 and CD123)
# Description: as §1
# [6] = target: T3, hCD33 (recombinant, construct not …); assay: switchSENSE; KD,1 (affinity)
# Description: as §1
# [7] = target: T1, hCD123 (recombinant, construct not …); assay: switchSENSE; KD,1 (affinity)
# Description: as §1
# [8] = target: T2, hCD33 and hCD123 immobilized …; assay: switchSENSE, hCD33 and hCD123 co-immobilised 2:1; panel headed CD123, column KD2 (avidity, simultaneous binding of CD33 and CD123 per paragraph 696)
# Description: as §1
# [9] = target: T2, hCD33 and hCD123 immobilized …; assay: switchSENSE, CD33 and CD123 on one chip; fast phase (affinity); fast phase (affinity)
# Description: as §1
# [10] = target: T1, hCD123 (recombinant, construct not …); assay: switchSENSE, CD33 and CD123 on one chip; kon to CD123
# Description: as §1
# [11] = target: T4, human CD3 on primary human pan-T cells (human, UniProt P07766 23-207; P09693 23-182; P04234 22-171; P20963 22-164); assay: Mirrorball cytometry on primary human pan-T cells, 600 µM HSA
# T4 construct: whole, on cells; Native complex on T cells isolated from PBMC; also called CD3 on Pan-T cells
# Description: The determination of T cell binding was performed with primary human T cells using Mirrorball laser scanning imaging cytometry. Therefore, primary T cells were isolated from human peripheral blood mononuclear cells (PBMCs) using a pan-T cell purification kit (Miltenyi Biotec). A titration of DARPin® protein #27, DARPin® protein #28 and DARPin® protein #29 and DARPin® protein #30 were incubated with 50′000 pan-T cells per well in presence of 600 μM human serum albumin (to mimic physiological serum concentration) for 30 minutes at 4° C. Two benchmark T-cell engagers, AMG330 and flotetuzumab were applied as controls, targeting CD33 or CD123. After washing, CD3 binding was detected by 1:100-diluted anti-penta-His Alexa Fluor 488 antibody (Qiagen). After 30 min incubation at 4° C., cells were washed and resuspended in Cytofix fixation buffer (BD Biosciences) and counterstained by 5 μM DRAQ5 (Abcam) for 15 min at RT. Median of mean fluorescence intensities of Alexa Fluor 488 binding on far-red counterstained cells were measured by Mirrorball using Cellista software (SPT Labtech) and data was plotted using GraphPad Prism 8.
# T3 sequence (P20138 18-259 limits assumed): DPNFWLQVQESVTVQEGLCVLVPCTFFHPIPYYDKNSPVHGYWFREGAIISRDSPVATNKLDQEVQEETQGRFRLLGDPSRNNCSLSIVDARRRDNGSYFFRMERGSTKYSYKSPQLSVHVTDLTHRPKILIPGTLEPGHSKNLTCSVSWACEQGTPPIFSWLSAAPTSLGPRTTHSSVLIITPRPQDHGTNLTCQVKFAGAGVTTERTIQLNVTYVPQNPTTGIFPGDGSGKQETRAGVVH
# T4 sequence (P07766 23-207, chain 1 of 4): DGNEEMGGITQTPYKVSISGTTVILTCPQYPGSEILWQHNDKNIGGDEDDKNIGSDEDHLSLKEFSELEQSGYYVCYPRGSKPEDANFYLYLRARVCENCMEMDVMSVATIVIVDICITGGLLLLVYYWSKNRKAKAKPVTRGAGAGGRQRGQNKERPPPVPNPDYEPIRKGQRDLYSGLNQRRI
# T4 sequence (P09693 23-182, chain 2 of 4): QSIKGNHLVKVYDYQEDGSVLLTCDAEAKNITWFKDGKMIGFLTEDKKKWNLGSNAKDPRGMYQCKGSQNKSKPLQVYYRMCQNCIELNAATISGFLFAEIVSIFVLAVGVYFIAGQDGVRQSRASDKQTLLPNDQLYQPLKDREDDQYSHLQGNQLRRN
# T4 sequence (P04234 22-171, chain 3 of 4): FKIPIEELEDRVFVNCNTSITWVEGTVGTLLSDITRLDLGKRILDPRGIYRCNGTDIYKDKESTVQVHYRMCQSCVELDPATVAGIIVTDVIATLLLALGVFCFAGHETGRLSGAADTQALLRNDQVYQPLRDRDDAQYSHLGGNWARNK
# T4 sequence (P20963 22-164, chain 4 of 4): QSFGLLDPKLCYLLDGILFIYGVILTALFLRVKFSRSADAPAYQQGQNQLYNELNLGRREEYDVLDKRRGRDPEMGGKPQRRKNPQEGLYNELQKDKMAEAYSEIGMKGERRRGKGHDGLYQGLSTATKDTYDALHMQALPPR
binder,measurement,setting,value
B1,koff,[1],~0.001 s⁻¹
same,Kd,[2],0.17 nM
same,Kd,[3],4.5 nM
same,Kd,[4],20 nM
same,Kd,[5],0.2 to 0.3 nM
same,Kd,[6],~20 nM
same,Kd,[7],~4.5 nM
same,Kd,[8],0.3 nM
same,koff,[9],~0.01 s⁻¹
same,kon,[10],~1e+07 M⁻¹ s⁻¹
same,EC50,[11],6.52 nM
